Assay results: patent US20170298146A1 (MODIQUEST B V, published 2017)
Non-standard residues stand in square brackets, D forms with d. No end group written: not given here. Cit = NC(=O)NCCC[C@H](N)C(=O)O

How the values were obtained:
[1] = molecular target: T1, CFC-1; experiment: ELISA, 10 ug/well
T1 construct: Positive control for anti-citrulline reactivity; also called cfc1 XG
Description: (§1) CFC-1 and CFC-0 were coated at the same concentration and served as positive and negative controls, respectively, for specific anti-citrulline reactivity and as coating controls. Non-coated wells were used to test for aspecific binding of the antibodies. […] Detection of bound anti-citrulline antibodies was performed by incubating the wells with rabbit-anti-human-HRP (1:2000) for one hour at RT followed by incubation with TMB substrate. The resulting OD (y-axis) is a measure for antibody binding. H1=recombinant histone 1; H1/p2=huPAD2 recombinant histone 1; H1/p4=huPAD4 recombinant histone 1 and so forth (x-axis).

[2] = molecular target: human recombinant histone H4 (human, UniProt P62805 2-103); experiment: ELISA, 10 ug/well
Description: as §1

[3] = molecular target: T2, huPAD2 deiminated human recombinant histone H2A (human); experiment: ELISA, 10 ug/well
T2 construct: also called H2A/p2
Description: as §1

[4] = molecular target: T3, huPAD2 deiminated human recombinant histone H2B (human); experiment: ELISA, 10 ug/well
T3 construct: also called H2B/p2
Description: as §1

[5] = molecular target: T4, human recombinant histone H2A (human); experiment: ELISA, 10 ug/well
T4 construct: Non-deiminated
Description: as §1

[6] = molecular target: T5, huPAD4 deiminated human recombinant histone H2B (human); experiment: ELISA, 10 ug/well
T5 construct: also called H2B/p4
Description: as §1

[7] = molecular target: T6, huPAD2 deiminated human recombinant histone H3 (human); experiment: ELISA, 10 ug/well
T6 construct: also called H3/p2
Description: as §1

[8] = molecular target: T7, human recombinant histone H2B (human); experiment: ELISA, 10 ug/well
T7 construct: Non-deiminated
Description: as §1

[9] = molecular target: T8, huPAD4 deiminated human recombinant histone H3 (human); experiment: ELISA, 10 ug/well
T8 construct: also called H3/p4
Description: as §1

[10] = molecular target: T9, huPAD4 deiminated human recombinant histone H2A (human); experiment: ELISA, 10 ug/well
T9 construct: also called H2A/p4; huPAD4 deiminated histone 2A
Description: as §1

[11] = molecular target: T1, CFC-1; experiment: peptide ELISA, 10 ug/well
Description: (§2) Biotin and citrulline-containing peptides derived from fibrinogen and vimentin were immobilized on NEUTRAVIDIN®-coated 96-well ELISA plates (0.3 μg/well). CFC-1 and CFC-0 were coated at the same concentration and served as positive and negative controls respectively for specific anti-citrulline reactivity and as coating controls. Non-coated wells were used to test for aspecific binding of the antibodies. […] Detection of bound anti-citrulline antibodies was performed by incubating the wells with rabbit-anti-human-HRP (1:2000) for one hour at RT followed by incubation with TMB substrate. The resulting OD (y-axis) is a measure for antibody binding.
(§3) Biotin-labeled and citrulline-containing fibrinogen and vimentin peptides (Table 5) were also tested for reactivity with the therapeutic antibodies. Peptides were coated on 96-well NEUTRAVIDIN®-ELISA plates.

[12] = molecular target: T10, huFibα XH (human, X at position 15 is citrulline; biotin label); experiment: peptide ELISA, 10 ug/well
T10 peptide: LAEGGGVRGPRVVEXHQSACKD
Description: as §2, §3

[13] = molecular target: T11, msFibα XH (mouse, X at position 15 is citrulline; biotin label); experiment: peptide ELISA, 10 ug/well
T11 peptide: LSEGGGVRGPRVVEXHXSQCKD
Description: as §2, §3

[14] = molecular target: T12, huFibα XG (human, X at position 8 is citrulline; biotin label); experiment: peptide ELISA, 10 ug/well
T12 peptide: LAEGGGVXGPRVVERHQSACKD
Description: as §2, §3

[15] = molecular target: T13, msVim XS/XL (mouse, also: biotin label); experiment: peptide ELISA, 10 ug/well
T13 construct: also called mouse vimentin peptide
T13 peptide: YVT[Cit]SSAV[Cit]L[Cit]SSVP
Description: as §2, §3

[16] = molecular target: T1, CFC-1; experiment: peptide ELISA, 0.00064 ug/well
Description: as §2, with “histone 2A” for “fibrinogen and vimentin”
(§4) Ninety-six-well ELISA plates were coated with NEUTRAVIDIN® (0.1 μg/well) by overnight incubation at 4° C. Wells were washed five times with PBS-TWEEN®-20 (PBS-T) and blocked by a one-hour incubation with PBS-T+1% Bovine serum albumin (BSA) at room temperature (RT). After five more washes with PBS-T, wells were incubated for one hour at RT with histone-derived citrulline and biotin-containing peptides (0.3 μg/well). […] Wells were washed five times with PBS-T and incubated with rabbit-anti-human-HRP (1:2000) for one hour at RT followed by five washes with PBS-T and three wash steps with PBS. Wells were incubated for five minutes with TMB substrate before stopping the reaction with 2 M H₂SO₄. Optical density was measured by 450 nm and is a measure for the affinity of the antibodies used.

[17] = molecular target: T14, Histone 2A citrulline-containing peptide 8 (human, also: biotin label); experiment: peptide ELISA, 0.00064 ug/well
T14 peptide: AGNAA[Cit]DNKKTR
Description: as §2, with “histone 2A” for “fibrinogen and vimentin”
as §4

[18] = molecular target: T15, Histone 2A citrulline-containing peptide 1 (human, also: biotin label); experiment: peptide ELISA, 0.00064 ug/well
T15 construct: also called AAASGXGKQGGK
T15 peptide: AAASG[Cit]GKQGGK
Description: as §2, with “histone 2A” for “fibrinogen and vimentin”
as §4

[19] = molecular target: T16, Histone 2A citrulline-containing peptide 4 (human, also: biotin label); experiment: peptide ELISA, 0.00064 ug/well
T16 peptide: QFPVG[Cit]VHRLLR
Description: as §2, with “histone 2A” for “fibrinogen and vimentin”
as §4

[20] = molecular target: T17, Histone 2A citrulline-containing peptide 11 (human, also: biotin label); experiment: peptide ELISA, 0.00064 ug/well
T17 peptide: LQLAI[Cit]NDEELN
Description: as §2, with “histone 2A” for “fibrinogen and vimentin”
as §4

[21] = molecular target: T18, Histone 2A citrulline-containing peptide 9 (human, also: biotin label); experiment: peptide ELISA, 0.00064 ug/well
T18 peptide: DNKKT[Cit]IIPRHL
Description: as §2, with “histone 2A” for “fibrinogen and vimentin”
as §4

[22] = molecular target: T19, Histone 2A citrulline-containing peptide 5 (human, also: biotin label); experiment: peptide ELISA, 0.00064 ug/well
T19 peptide: VGRVH[Cit]LLRKGN
Description: as §2, with “histone 2A” for “fibrinogen and vimentin”
as §4

[23] = molecular target: T20, Histone 2A citrulline-containing peptide 2 (human, also: biotin label); experiment: peptide ELISA, 0.00064 ug/well
T20 peptide: AKAKS[Cit]SSRAGL
Description: as §2, with “histone 2A” for “fibrinogen and vimentin”
as §4

[24] = molecular target: T21, Histone 2A citrulline-containing peptide 7 (human, also: biotin label); experiment: peptide ELISA, 0.00064 ug/well
T21 peptide: GNYSE[Cit]VGAGAP
Description: as §2, with “histone 2A” for “fibrinogen and vimentin”
as §4

B1: RhmAb2.102 (antibody, human IgG1, lambda)
heavy: not shown
light: QSVLTQPPSMSAAPGQKVTISCSGSSSNIGNNYVSWYQQVPGTAPKLLIYDDNKRPSGIPGRFSGSKSATSATLGITGLQAGDEADYYCGSWDDNLSVVLFGGGTKLTVLGQPKAAPSVTLFPPSSEELQANKATLVCLISDFYPGAVTVAWKADSSPVKAGVETTTPSKQSNNKYAASSYLSLTPEQWKSHRSYSCQVTHEGSTVEKTVAPTECS
notes: Human IgG1 lambda; also called Rhm2.102
- OD [1]: 3.48 OD
- OD [2]: 0.825 OD
- OD [3]: 3.41 OD
- OD [4]: 0.31 OD
- OD [5]: 0.428 OD
- OD [6]: 0.229 OD
- OD [7]: 2.44 OD
- OD [8]: 0.247 OD
- OD [9]: 1.31 OD
- OD [10]: 3.42 OD
- OD [11]: 3.89 OD
- OD [12]: 0.179 OD
- OD [13]: 0.154 OD
- OD [14]: 2.73 OD
- OD [15]: 3.69 OD
- OD [16]: 0.621 OD
- OD [17]: 0.057 OD
- OD [18]: 0.16 OD
- OD [19]: 0.063 OD
- OD [20]: 0.06 OD
- OD [21]: 0.059 OD
- OD [22]: 0.067 OD
- OD [23]: 0.055 OD
- OD [24]: 0.057 OD
